Laboratory results as given in patent US20190241886A1.

Biological target: CD137 (soluble antigen for staining of yeast) (human) (UniProt Q07011)
Assay: flow cytometry of yeast displaying the scFv, stained with human CD137; number printed over the dot plot, y axis CD137 binding (FL2-A PE-A), x axis scFv display

Sequence of CD137 (soluble antigen for staining of yeast) (human) (Q07011 24-186 limits assumed): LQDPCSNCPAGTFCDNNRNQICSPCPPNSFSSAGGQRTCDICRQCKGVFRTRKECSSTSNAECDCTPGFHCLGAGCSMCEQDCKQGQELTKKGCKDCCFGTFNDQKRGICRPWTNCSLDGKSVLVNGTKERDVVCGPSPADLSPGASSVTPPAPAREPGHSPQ

Y: 19200
B1: scFv of parental CD137 antibody TY21242 displayed on yeast (scFv, part only; not given: linker, Aga2 and tag, V domains shown, not shown: another chain or arm of the molecule; large carriers; small tags and cut ends)
VL: DIQLTQSPSSLSASVGDRVTITCRASQSIGSYLAWYQQKPGKAPKLLIYDASNLETGVPSRFSGSGSGTDFTLTISSLQPEDFATYYCQQGYYLWTFGQGTKVEIK
VH: EVQLVESGGGLVQPGGSLRLSCAASGFSLSTGGVGVGWIRQAPGKGLEWLALIDWADDKYYSPSLKSRLTISRDNSKNTLYLQLNSLRAEDTAVYYCARGGSDTVIGDWFAYWGQGTLVTVSS
